In patent US6306649 one finds activity data, which are given here for one sequence.

The data set addresses ZFHD1 (Zif268 zinc fingers-Oct1 homeodomain chimera) fused to 3xFKBP (UniProt P08046+P14859). As to the kind of experiment: cell_activity. To be noted: SEAP reporter in HT1080 cells; rapamycin-dependent, peak at 5 nM; no SEAP without either fusion.

Sequence of ZFHD1 (Zif268 zinc fingers-Oct1 homeodomain chimera) fused to 3xFKBP (P08046 whole entry, change not shown, chain 1 of 2, the tested form may be a part): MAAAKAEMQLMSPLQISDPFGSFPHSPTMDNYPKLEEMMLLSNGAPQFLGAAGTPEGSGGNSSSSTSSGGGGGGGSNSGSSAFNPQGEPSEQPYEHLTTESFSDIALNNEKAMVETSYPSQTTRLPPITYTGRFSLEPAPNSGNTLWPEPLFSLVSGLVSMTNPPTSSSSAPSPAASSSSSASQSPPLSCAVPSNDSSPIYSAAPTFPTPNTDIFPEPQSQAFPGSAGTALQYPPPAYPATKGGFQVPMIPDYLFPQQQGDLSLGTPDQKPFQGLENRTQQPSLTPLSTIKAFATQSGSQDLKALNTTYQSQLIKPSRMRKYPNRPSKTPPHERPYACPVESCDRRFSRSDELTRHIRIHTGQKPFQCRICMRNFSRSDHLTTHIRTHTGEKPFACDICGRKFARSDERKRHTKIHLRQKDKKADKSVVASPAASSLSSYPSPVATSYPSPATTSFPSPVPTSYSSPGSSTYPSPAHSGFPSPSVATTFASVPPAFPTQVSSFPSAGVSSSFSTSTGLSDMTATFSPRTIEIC
Sequence of ZFHD1 (Zif268 zinc fingers-Oct1 homeodomain chimera) fused to 3xFKBP (P14859 whole entry, change not shown, chain 2 of 2, the tested form may be a part): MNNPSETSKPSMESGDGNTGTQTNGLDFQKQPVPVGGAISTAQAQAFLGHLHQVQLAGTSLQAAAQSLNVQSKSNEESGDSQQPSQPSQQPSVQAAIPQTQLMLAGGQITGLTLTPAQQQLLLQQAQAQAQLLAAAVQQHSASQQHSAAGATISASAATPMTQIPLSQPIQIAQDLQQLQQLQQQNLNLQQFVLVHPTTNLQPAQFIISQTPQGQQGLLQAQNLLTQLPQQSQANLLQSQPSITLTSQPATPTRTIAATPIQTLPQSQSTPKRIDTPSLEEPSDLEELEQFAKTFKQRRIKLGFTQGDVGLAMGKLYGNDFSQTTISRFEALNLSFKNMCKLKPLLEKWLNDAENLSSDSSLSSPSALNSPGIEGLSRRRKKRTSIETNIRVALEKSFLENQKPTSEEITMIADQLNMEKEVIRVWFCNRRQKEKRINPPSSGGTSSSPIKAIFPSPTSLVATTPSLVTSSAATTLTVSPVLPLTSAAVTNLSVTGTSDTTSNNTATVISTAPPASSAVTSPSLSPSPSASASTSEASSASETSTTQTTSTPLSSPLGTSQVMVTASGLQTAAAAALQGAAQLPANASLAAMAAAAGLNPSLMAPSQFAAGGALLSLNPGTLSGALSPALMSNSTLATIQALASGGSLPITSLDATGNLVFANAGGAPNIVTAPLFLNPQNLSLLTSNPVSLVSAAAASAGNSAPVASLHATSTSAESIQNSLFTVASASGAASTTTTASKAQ

“GCTAGCTAATGATGGGCGCTCGAGTAATGATGGGCGGTCGACTAATGATGGGCGCTCGAGTAATGATGGGCGTCTAGCTAATGATGGGCGCTCGAGTAATGATGGGCGGTCGACTAATGATGGGCGCTCGAGTAATGATGGGCGTCTAGCTAATGATGGGCGCTCGAGTAATGATGGGCGGTCGACTAATGATGGGCGCTCGAGTAATGATGGGCGTCTAGA (double strand) [12x ZFHD1 binding sites (pZHWTx12)]” gave an activity of over 1000 fold.
